Results published in the Human Domainome abundance scans (Beltran et al. 2025).
± gives the uncertainty stated by the source.

B1: Pituitary-specific positive transcription factor 1, residues 130 to 198; numbered along this chain, P28069 (parent)
chain: RELEKFANEFKVRRIKLGYTQTNVGEALAAVHGSEFSQTTICRFENLQLSFKNACKLKAILSKWLEEAE

Variants of: B1
Experiment: abundance fitness (aPCA) (normalised: wild type 0, dead -1); higher = more abundant; growth selection in yeast, the domain comes from the species named
Conditions: Homo sapiens

First: RELEKFANEFKVRRIKLGYTQTNVGEELAAVHGSEFSQTTICRFENLQLSFKNACKLKAILSKWLEEAE [A27E]
Second: RELEKFANEFKVRRIKLGYTQTNVGECLAAVHGSEFSQTTICRFENLQLSFKNACKLKAILSKWLEEAE [A27C]
The abundance fitness of the first is higher: 0.137 ± 0.095 for the first, -0.289 ± 0.28 for the second.

First: RELEKFANEFKVRRIKLGYTQTNVGEILAAVHGSEFSQTTICRFENLQLSFKNACKLKAILSKWLEEAE [A27I]
Second: RELEKFANEFKVRRIKLGYTQTNVGEKLAAVHGSEFSQTTICRFENLQLSFKNACKLKAILSKWLEEAE [A27K]
The abundance fitness of the first is higher: -0.166 ± 0.15 for the first, -0.483 ± 0.1 for the second.

Going from RELEWFANEFKVRRIKLGYTQTNVGEALAAVHGSEFSQTTICRFENLQLSFKNACKLKAILSKWLEEAE [K5W] to RELEKFANEFKVRRIKLGYTQTNVGEALAAVHGSEFSQTTICRFENLQLSFKNACKLKAILSMWLEEAE [K63M], the abundance fitness rises from -0.596 ± 0.063 to -0.155 ± 0.13.

First: REFEKFANEFKVRRIKLGYTQTNVGEALAAVHGSEFSQTTICRFENLQLSFKNACKLKAILSKWLEEAE [L3F]
Second: RELEKFANEFKVRRIKLGYHQTNVGEALAAVHGSEFSQTTICRFENLQLSFKNACKLKAILSKWLEEAE [T20H]
The abundance fitness of the first is higher: -0.472 ± 0.12 for the first, -1.05 ± 0.43 for the second.

First: RELEKFANEFKVRRIKLGYTQTNVGEALAAVHGSEFSQTTICRFENLQLSFKNACWLKAILSKWLEEAE [K56W]
Second: RELEKFANEFKVRRIKLGYTQTNVGEALAAVHGSEFSQTTICRFENLQLSFKNACVLKAILSKWLEEAE [K56V]
The abundance fitness of the first is lower: -0.533 ± 0.085 for the first, -0.135 ± 0.069 for the second.

RELEKFANELKVRRIKLGYTQTNVGEALAAVHGSEFSQTTICRFENLQLSFKNACKLKAILSKWLEEAE [F10L] and RELEKFANEFKVRRIKLGYTQTNVGEALAAVHGSEFSQTTICRFENLQLSFKNACKLKAILSKWLEEFE [A68F] are within error of each other in abundance fitness: -0.731 ± 0.081 for the first, -0.747 ± 0.23 for the second.

RELEKFANEFKVRRIKLGYTQTNVGEALAAVHGSEFSQSTICRFENLQLSFKNACKLKAILSKWLEEAE [T39S] and RELEKFANEFKVRRIKLGYTQTNVGEALAAVHGSEFSQGTICRFENLQLSFKNACKLKAILSKWLEEAE [T39G] are within error of each other in abundance fitness: -0.065 ± 0.077 for the first, -0.13 ± 0.044 for the second.

Going from RELEKFANEFKVRRIKLGYTQTNVGEALAAVHGSEFSQTTCCRFENLQLSFKNACKLKAILSKWLEEAE [I41C] to RELEKFANEFKVRRIKLGYTQTNVGEALAAVHGSEFSQTTGCRFENLQLSFKNACKLKAILSKWLEEAE [I41G], the abundance fitness falls from -0.444 ± 0.12 to -0.976 ± 0.27.

First: RELEKFANEFKVRRIKLGYTQTNVGEALAAVHGSEFSQTTICRFENLRLSFKNACKLKAILSKWLEEAE [Q48R]
Second: RELEKFDNEFKVRRIKLGYTQTNVGEALAAVHGSEFSQTTICRFENLQLSFKNACKLKAILSKWLEEAE [A7D]
The abundance fitness of the first is higher: -0.331 ± 0.088 for the first, -0.783 ± 0.15 for the second.

Compared with RELEKFCNEFKVRRIKLGYTQTNVGEALAAVHGSEFSQTTICRFENLQLSFKNACKLKAILSKWLEEAE [A7C], RELEKFANEFKVRYIKLGYTQTNVGEALAAVHGSEFSQTTICRFENLQLSFKNACKLKAILSKWLEEAE [R14Y] is lower in abundance fitness: -0.21 ± 0.061 for the first, -0.745 ± 0.2 for the second.

RELEKFANEFKVRTIKLGYTQTNVGEALAAVHGSEFSQTTICRFENLQLSFKNACKLKAILSKWLEEAE [R14T] and RELEKFANEFKVRLIKLGYTQTNVGEALAAVHGSEFSQTTICRFENLQLSFKNACKLKAILSKWLEEAE [R14L] are within error of each other in abundance fitness: -0.878 ± 0.15 for the first, -0.72 ± 0.18 for the second.

First: RELEKFANWFKVRRIKLGYTQTNVGEALAAVHGSEFSQTTICRFENLQLSFKNACKLKAILSKWLEEAE [E9W]
Second: RELEKFANVFKVRRIKLGYTQTNVGEALAAVHGSEFSQTTICRFENLQLSFKNACKLKAILSKWLEEAE [E9V]
The abundance fitness of the first is higher: -0.057 ± 0.085 for the first, -0.65 ± 0.1 for the second.

Compared with RELEKFANEFKVRRIKLGYTQTNVGEALAAVHGSEFSQTTICRFENLQLSFLNACKLKAILSKWLEEAE [K52L], RELEKFANEFKVRRIKLGYTQTNVGEALAAVHGSEFSQTTICRFENLQLSFTNACKLKAILSKWLEEAE [K52T] is higher in abundance fitness: -0.369 ± 0.068 for the first, 0.036 ± 0.11 for the second.

First: RELEKFANEFKVRRIKLGYTQTNVGEALAAVHGSEFSQTTICRFENLQLSFANACKLKAILSKWLEEAE [K52A]
Second: RELEKFANEFKVRRIKLGYTQTNVGEASAAVHGSEFSQTTICRFENLQLSFKNACKLKAILSKWLEEAE [L28S]
The abundance fitness of the first is higher: 0.002 ± 0.046 for the first, -0.732 ± 0.16 for the second.

Going from RELEKFANEFKVRRIKLGYTQTNVGEAMAAVHGSEFSQTTICRFENLQLSFKNACKLKAILSKWLEEAE [L28M] to RELEKFANEFKVRRIKLGYTQTNVGEALAAVHGSEFSQTTICRFENLQLSFKCACKLKAILSKWLEEAE [N53C], the abundance fitness rises from -0.824 ± 0.27 to -0.013 ± 0.086.

RELEKFANEFKVRRIKLFYTQTNVGEALAAVHGSEFSQTTICRFENLQLSFKNACKLKAILSKWLEEAE [G18F] and RELEKFANEFKVRRIKLGYTQTNVGEALAAVHGSEFSQTTICRFSNLQLSFKNACKLKAILSKWLEEAE [E45S] are within error of each other in abundance fitness: -0.681 ± 0.21 for the first, -0.92 ± 0.1 for the second.

RELEKFANEFKVRRIKLGYTQTNVGEALAAVHGSEFSQTTICRFQNLQLSFKNACKLKAILSKWLEEAE [E45Q] and RELEKFANEFKVRRIKLGYTQTNVGEALAAVHGSEFSQTTICRFENLQLSFKNACKLKAILSKWPEEAE [L65P] are within error of each other in abundance fitness: -0.767 ± 0.23 for the first, -0.752 ± 0.2 for the second.

First: RELEKFANEFKVRRIKLGYTQTNVGEALAAVHGSEFSQTTICRFENLQLSFKNACKLKAILSKWYEEAE [L65Y]
Second: RELEKFANEFKVRRCKLGYTQTNVGEALAAVHGSEFSQTTICRFENLQLSFKNACKLKAILSKWLEEAE [I15C]
The abundance fitness of the first is lower: -0.833 ± 0.18 for the first, -0.327 ± 0.094 for the second.

RELEKFANEFKVRRIKLGYTQTNVGVALAAVHGSEFSQTTICRFENLQLSFKNACKLKAILSKWLEEAE [E26V] and RELEKFANEFKVRRIKLGYTQTNVGEALAAVHGSEFSQTVICRFENLQLSFKNACKLKAILSKWLEEAE [T40V] are within error of each other in abundance fitness: -0.461 ± 0.11 for the first, -0.314 ± 0.083 for the second.

Variant RELEKFANEFKVRRIKLGYTQTRVGEALAAVHGSEFSQTTICRFENLQLSFKNACKLKAILSKWLEEAE [N23R] has an abundance fitness of -0.053 ± 0.059.
